Target: T1, JNK1 (Rattus norvegicus, UniProt P49185)
T1 construct: JNK is immunoprecipitated from the cell lysate; endogenous in cells; host or cells: rat primary neuronal cultures; JNK1 immunoprecipitated from lysate
Test: kinase assay (KA) on JNK1 immunoprecipitated from cell lysates
Format: cell-based
Settings: for JNK1 activity normalized to 0 h: NMDA + NIMoE
Experimental: JNK activity was measured with an in vitro kinase assay as described elsewhere (see, for e.g.: Khatlani et al., 2007). Briefly, cell lysates were prepared and JNK was immunoprecipitated with specific antibodies. The immnoprecipitates were then resuspended in 1× kinase buffer (Cell Signaling Technology™) supplemented with 200 μM ATP and 250 μg/ml GST-c-jun (1-89), and incubated at 30° C. for 30 min. Reactions were terminated by the addition of SDS-PAGE sample buffer. Phosphorylated c-jun was resolved by SDS-PAGE and detected with anti-p-c-jun.

T1 sequence (P49185 whole entry): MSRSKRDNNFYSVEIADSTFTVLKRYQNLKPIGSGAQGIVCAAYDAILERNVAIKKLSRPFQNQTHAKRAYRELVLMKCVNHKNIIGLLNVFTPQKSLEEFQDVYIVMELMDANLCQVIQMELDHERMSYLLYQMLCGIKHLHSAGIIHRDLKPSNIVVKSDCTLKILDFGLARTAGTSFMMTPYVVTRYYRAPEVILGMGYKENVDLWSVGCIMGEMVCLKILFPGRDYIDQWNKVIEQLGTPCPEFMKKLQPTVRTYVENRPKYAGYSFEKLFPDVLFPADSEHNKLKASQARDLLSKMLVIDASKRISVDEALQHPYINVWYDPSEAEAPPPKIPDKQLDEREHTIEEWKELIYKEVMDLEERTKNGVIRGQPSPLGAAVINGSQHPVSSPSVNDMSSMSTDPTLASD

## MTPLMWAAYRTHSVDPTRLL (listed as Homo sapiens) [NIMoE, peptide comprising motif-E of zD17, fused to the cell-membrane transduction domain of HIV-1 Tat for cell experiments]
0.5 h
  JNK1 activity normalized to 0 h: 104.3±2.6%
1 h
  JNK1 activity normalized to 0 h: 168.5±3.3%
NMDA, neuronal cultures
  normal activation of JNK1: did not inhibit

Source: patent publication US9458437B2, “Neuroprotective peptides that inhibit interaction between palmitoyl acyl transferase zinc-finger DHHC type containing 17 (zD17) and c-jun N-terminal kinase (JNK)” (The University of British Columbia, priority 2011, dated 2016)
